Data published in patent US20250269045A1 (PHARMAESSENTIA, published 2025).
One block for each binder: values may come before it.

What was measured:
[1] = target: T1, granulocyte colony-stimulating factor receptor (G-CSFR) (human, UniProt Q99062 25-621, limits assumed); test: SPR (Biacore CM5), G-CSFR immobilised, analyte in flow, 1:1 kinetic fit
T1 construct: also called GCSF receptor; G-CSF receptor
T1 sequence (looked up): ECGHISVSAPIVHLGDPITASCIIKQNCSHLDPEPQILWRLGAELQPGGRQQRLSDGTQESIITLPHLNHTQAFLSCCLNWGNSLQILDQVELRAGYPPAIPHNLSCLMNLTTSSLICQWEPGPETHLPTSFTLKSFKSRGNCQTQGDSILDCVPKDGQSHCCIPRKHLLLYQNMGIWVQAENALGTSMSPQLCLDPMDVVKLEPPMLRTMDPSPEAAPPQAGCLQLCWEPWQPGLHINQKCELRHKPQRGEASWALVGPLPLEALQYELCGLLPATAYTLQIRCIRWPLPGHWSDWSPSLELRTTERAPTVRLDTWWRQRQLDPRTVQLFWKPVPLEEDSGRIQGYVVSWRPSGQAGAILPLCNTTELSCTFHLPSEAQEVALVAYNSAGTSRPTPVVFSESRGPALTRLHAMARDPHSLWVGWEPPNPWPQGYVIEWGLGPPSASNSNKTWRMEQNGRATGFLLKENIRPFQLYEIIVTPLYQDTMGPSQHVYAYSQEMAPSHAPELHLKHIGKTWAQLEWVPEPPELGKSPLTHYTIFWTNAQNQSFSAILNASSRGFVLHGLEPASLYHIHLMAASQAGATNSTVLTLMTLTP
Method: (§1) In this example, G-CSFR (GCSF receptors) were immobilized onto the Sensor Chip CM5 (Biacore, trademarked) as the ligand. In each testing samples, Filgrastim RS (reference standard), MetHuG-CSF, and mPEG-MetHuG-CSF, as the analyte, were flowed through the ligand on CM5 chip respectively. The titration range of test sample analytes used in the assay was 40.5, 20.2, […], 10.1, 5.1, 2.5, 1.3 and 0.6 nM. Formulation buffers of testing samples were also tested as negative controls. The binding between the ligand and the analyte was monitored through SPR sensorgram. As slow-on and slow-off sensorgrams were observed, the kinetics fit model (“1:1 binding”) was used to obtain association constant (ka) and dissociation constant (kd), and KD was calculated by kd/ka.

[2] = target: T1, granulocyte colony-stimulating factor …; test: SPR (Biacore CM5), G-CSFR immobilised; KD divided by KD of Filgrastim RS
Method: as §1
(§2) In Table 6 below, KD values of three testing samples towards G-CSFR were determined by SPR and summarized in the unit of molar concentration (M). For the KD ratio, the KD value of each testing sample was normalized with KD of Filgrastim RS.

[3] = target: T1, granulocyte colony-stimulating factor …; test: SPR (Biacore CM5), G-CSFR immobilised, analyte in flow, 1:1 kinetic fit, KD = kd/ka
Method: as §1

[4] = target: T1, granulocyte colony-stimulating factor …; test: SPR (Biacore CM5), G-CSFR immobilised; this sample is the reference itself
Method: as §1, §2

koff [1]: 0.000401 s⁻¹
kon [1]: 408000 M⁻¹ s⁻¹
KD ratio (normalised to Filgrastim RS) [2]: 1.65
Kd [3]: 0.982 nM
B1: mPEG-MetHuG-CSF (ligand)
chain: MTPLGPASSLPQSFLLKCLEQVRKIQGDGAALQEKLCATYKLCHPEELVLLGHSLGIPWAPLSSCPSQALQLAGCLSQLHSGLFLYQGLLQALEGISPELGPTLDTLQLDVADFATTIWQQMEELGMAPALQPTQGAMPAFASAFQRRAGGVLVASHLQSFLEVSYRVLRHLAQP
modifications: branched mPEG (two arms, each about 19-23 KDa; 40K-mPEG-aldehyde) covalently attached by amine linkage to the N-terminal Met (residue 1)
notes: also called P2203

koff [1]: 0.000469 s⁻¹
kon [1]: 657000 M⁻¹ s⁻¹
KD ratio (normalised to Filgrastim RS) [2]: 1.2
Kd [3]: 0.713 nM
B2: MetHuG-CSF (ligand)
chain: B1 chain
notes: 175 aa: the 174 aa human G-CSF plus an N-terminal Met; also called MetHuG-CSF intermediate; human G-CSF with additional N-terminal Met

koff [1]: 0.000444 s⁻¹
kon [1]: 747000 M⁻¹ s⁻¹
KD ratio (normalised to Filgrastim RS) [4]: 1
Kd [3]: 0.595 nM
B3: Filgrastim Reference Standard (ligand, human, UniProt P09919-2 31-204, looked up)
chain: TPLGPASSLPQSFLLKCLEQVRKIQGDGAALQEKLCATYKLCHPEELVLLGHSLGIPWAPLSSCPSQALQLAGCLSQLHSGLFLYQGLLQALEGISPELGPTLDTLQLDVADFATTIWQQMEELGMAPALQPTQGAMPAFASAFQRRAGGVLVASHLQSFLEVSYRVLRHLAQP
notes: also called Filgrastim RS
